# Results from patent publication US20220017634A1 (DENALI THERAPEUTICS, published 2022).
# Changes are numbered by the printed parent chain.
# B1: Clone CH2A2.4, Fc displayed on phage (designed binder)
# chain: APELLGGPSVFLFPPKPKDTLMISRTPEVTCVVVDVSHEDPEVSFEWYVDGVPVRWEWQWPREEQYNSTYRVVSVLTVLHQDWLNGKEYKCKVSNKALPAPIEKTISKAKGQPREPQVYTLPPSRDELTKNQVSLTCLVKGFYPSDIAVEWESNGQPENNYKTTPPVLDSDGSFFLYSKLTVDKSRWQQGNVFSCSVMHEALHNHYTQKSLSLSPGK
# notes: As m16
# B2: Clone CH2A2.5, Fc displayed on phage (designed binder)
# chain: B1 chain with S44A, E46T, W60N
# notes: As m16
# B3: Clone CH2A2.16, Fc displayed on phage (designed binder)
# chain: B1 chain with S44W, P53F, R55G, W56V, E57A, W58Y, Q59D, W60V
# notes: As m16
# B4: Clone CH2A2.1, Fc displayed on phage (designed binder)
# chain: B1 chain with S44E, E46I, P53D, W56Y, W60L
# notes: Fc dimer on phage (pIII fusion with c-Myc and 6xHis tags paired with soluble Fc)
# Experiments:
# [1] = molecular target: T1, human transferrin receptor (human TfR) (human, UniProt P02786 89-760, limits assumed); assay: phage ELISA
# T1 construct: Recombinant target coated on plates or biotinylated and captured on streptavidin (ELISA, BLI); also called huTfR
# T1 sequence (P02786 89-760 limits assumed): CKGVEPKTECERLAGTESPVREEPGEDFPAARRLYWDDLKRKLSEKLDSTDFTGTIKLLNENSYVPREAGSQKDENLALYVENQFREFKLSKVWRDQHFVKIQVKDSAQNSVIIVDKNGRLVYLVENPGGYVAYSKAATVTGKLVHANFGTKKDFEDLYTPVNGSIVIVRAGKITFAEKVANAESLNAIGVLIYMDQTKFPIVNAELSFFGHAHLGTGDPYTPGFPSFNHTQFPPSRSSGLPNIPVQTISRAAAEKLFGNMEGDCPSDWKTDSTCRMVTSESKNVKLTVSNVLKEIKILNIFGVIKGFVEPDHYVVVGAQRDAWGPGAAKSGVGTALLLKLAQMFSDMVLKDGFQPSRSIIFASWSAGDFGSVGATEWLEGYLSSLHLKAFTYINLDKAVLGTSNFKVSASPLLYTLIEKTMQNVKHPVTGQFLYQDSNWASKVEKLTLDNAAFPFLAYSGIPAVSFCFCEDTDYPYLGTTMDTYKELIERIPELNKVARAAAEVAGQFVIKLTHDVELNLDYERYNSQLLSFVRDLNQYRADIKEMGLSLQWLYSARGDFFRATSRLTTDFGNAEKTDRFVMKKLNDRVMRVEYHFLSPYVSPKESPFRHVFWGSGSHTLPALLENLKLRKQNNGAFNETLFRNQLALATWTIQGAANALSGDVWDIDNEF
# Protocol: (§1) Clones were selected from panning outputs and grown in individual wells of 96-well deep-well plates. The clones were either induced for periplasmic expression using autoinduction media (obtained from EMD Millipore) or infected with helper phage for phage-display of the individual Fc variants on phage. The cultures were grown overnight and spun to pellet E. coli. For phage ELISA, phage containing supernatant was used directly. For periplasmic expression, pellets were resuspended in 20% sucrose, followed by dilution at 4:1 with water, and shaken at 4° C. for 1 hour. Plates were spun to pellet the solids and supernatant was used in the ELISA.
# (§2) ELISA plates were coated with target, typically at […] overnight, then blocked with 1% BSA before addition of phage or periplasmic extracts. […] The plates were washed again, and then developed with TMB reagent and quenched with 2N sulfuric acid. Absorbance at 450 nm was quantified using a plate reader (BioTek®) and binding curves were plotted using Prism software where applicable. Absorbance signal for tested clones was compared to negative control (phage or paraplasmic extract lacking Fc). In some assays, soluble holo-transferrin was added during the binding step, typically at significant molar excess (greater than 10-fold excess).
# (§3) Individual CH2A2 variants were expressed on the surface of phage and assayed for binding to human TfR, cyno TfR, or an irrelevant control by ELISA. Expression of Fc was confirmed by ELISA against anti-Myc antibody 9E10, which bound to the C-terminal c-Myc epitope tag. […] The three clones from group 1 also bound to cyno TfR, whereas the one clone from group 2 (i.e., clone 2A2.16) was specific for human TfR.
# [2] = molecular target: cynomolgus transferrin receptor (cyno TfR) (cynomolgus monkey, UniProt H9EXL1 89-760 (rhesus entry)); assay: phage ELISA
# Sequence of cynomolgus transferrin receptor (cyno TfR) (chain, as listed by the source): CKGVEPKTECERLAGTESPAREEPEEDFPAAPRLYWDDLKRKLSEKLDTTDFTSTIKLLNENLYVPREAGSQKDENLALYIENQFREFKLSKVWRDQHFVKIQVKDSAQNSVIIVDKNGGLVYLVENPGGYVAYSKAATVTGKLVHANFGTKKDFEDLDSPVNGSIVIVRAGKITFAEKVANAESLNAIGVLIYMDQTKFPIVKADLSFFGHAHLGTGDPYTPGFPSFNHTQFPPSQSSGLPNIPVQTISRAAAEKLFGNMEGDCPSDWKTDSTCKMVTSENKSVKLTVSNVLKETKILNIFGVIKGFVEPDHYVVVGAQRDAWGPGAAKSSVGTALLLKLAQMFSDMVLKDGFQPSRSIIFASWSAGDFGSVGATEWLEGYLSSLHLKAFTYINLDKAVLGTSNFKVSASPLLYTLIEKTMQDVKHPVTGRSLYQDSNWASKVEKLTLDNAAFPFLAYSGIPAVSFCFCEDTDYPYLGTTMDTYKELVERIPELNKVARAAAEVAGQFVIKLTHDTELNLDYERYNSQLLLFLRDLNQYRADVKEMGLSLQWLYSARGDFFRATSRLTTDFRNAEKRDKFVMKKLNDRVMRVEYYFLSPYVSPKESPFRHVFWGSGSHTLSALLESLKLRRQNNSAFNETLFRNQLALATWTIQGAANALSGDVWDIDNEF
# Protocol: as §1, §2, §3
Binder,binding result [1],binding result [2]
B1,binds,
B2,binds,
B3,binds,no binding
B4,binds,
